Laboratory results reported in patent US20020110800A1, “Use of SHP-1 and SHP-2 to detect compounds involved in neuronal survival” (McGill University, priority 1997, published 2002).

What was measured:
Test in all cases: cell-based or functional assay
TrkA Y490F = TrkA Y490F (UniProt P04629)
TrkA Y785F = TrkA Y785F (UniProt P04629)
TrkA Y490/785F = TrkA Y490/785F (UniProt P04629)
[1] = target: wild-type TrkA, baculovirus-expressed, activated (autophosphorylated) (UniProt P04629)

Trk tyrosine dephosphorylation on co-expression in insect cells (anti-pTyr blot) (TrkA Y490F): 8 fold
Trk tyrosine dephosphorylation on co-expression in insect cells (anti-pTyr blot) (TrkA Y785F): 8 fold
Trk tyrosine dephosphorylation on co-expression in insect cells (anti-pTyr blot) (TrkA Y490/785F): 8 fold
Trk tyrosine dephosphorylation on co-expression in insect cells (anti-pTyr blot) [1]: 8 fold
dephosphorylation of Trk at Y674/Y675 (phospho-specific anti-Trk antibodies, co-expression in insect cells) [1]: 10 fold
Substance: SHP-1 (enzyme)
